Measured values: US10940182B2, “Use of modified vasoactive intestinal peptides in the treatment of hypertension” (PhaseBio Pharmaceuticals, Inc., priority 2011, dated 2021)

Experiments:
[1] = system: Spontaneously hypertensive rats; assay: Blood pressure effect of PB1047 in spontaneously hypertensive rats; format: in vivo, rat; details: 10 mg/kg subcutaneous, vs buffer control, FIG. 8
Experimental: The activity of the modified VIP-ELP fusion protein PB1047 was also tested in vivo. Specifically, effects of VIP-ELP fusion protein on blood pressure were tested. Spontaneously hypertensive rats were treated subcutaneous with PB1047 (10 mg/kg) or buffer control and their blood pressures were measured at several points after administration of the fusion protein. Five animals were used for each group and the graphs show the average and the standard deviation.

[2] = biological target: T1, human Vasoactive Intestinal Peptide Receptor 1 (VPAC1) (Homo sapiens, UniProt P32241); assay: cAMP cell-based bioassay, CHO cells expressing VPAC1; details: for in vitro activity for VPAC1 receptor compared with native VIP: cAMP, CHO cells expressing VPAC1, 30 minute incubation, FIG. 7, PB1047 DPP-IV treated
T1 construct: expressed in transfected cells; host or cells: Chinese Hamster Ovary (CHO) cells
T1 sequence (P32241 31-457): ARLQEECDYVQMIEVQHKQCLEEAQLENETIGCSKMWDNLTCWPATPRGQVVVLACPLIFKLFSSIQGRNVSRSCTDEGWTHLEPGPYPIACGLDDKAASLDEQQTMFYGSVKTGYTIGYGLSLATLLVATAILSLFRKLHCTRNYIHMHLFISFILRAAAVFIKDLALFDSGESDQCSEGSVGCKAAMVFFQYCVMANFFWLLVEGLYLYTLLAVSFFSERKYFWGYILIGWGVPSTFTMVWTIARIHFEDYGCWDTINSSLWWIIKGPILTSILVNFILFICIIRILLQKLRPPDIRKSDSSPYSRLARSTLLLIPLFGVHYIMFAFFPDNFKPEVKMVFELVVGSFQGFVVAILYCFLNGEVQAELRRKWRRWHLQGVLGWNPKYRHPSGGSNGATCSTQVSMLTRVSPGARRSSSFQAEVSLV
Experimental: (§1) Since the amount of cAMP accumulation in cells after receptor-mediated ligand binding and activation is directly proportional to the amount of intact peptide or fusion protein present, the assay can be used to determine bioactivity and relative potency.
(§2) After 30 minute incubations of various concentrations of the fusion proteins with CHO cells, cells were lysed and the amount of cAMP produced was measured using a commercial kit. PB1047 was DPP-IV treated prior to the addition to the cells.
The activity of the PB1120 fusion peptide was tested in vitro.

[3] = biological target: T2, human Vasoactive Intestinal Peptide Receptor 2 (VPAC2) (Homo sapiens, UniProt P41587); assay: cAMP cell-based bioassay, CHO cells expressing VPAC2; details: for in vitro activity for VPAC2 receptor compared with native VIP: cAMP, CHO cells expressing VPAC2, 30 minute incubation, FIG. 6, PB1047 DPP-IV treated
T2 construct: expressed in transfected cells; host or cells: Chinese Hamster Ovary (CHO) cells
T2 sequence (P41587 24-438): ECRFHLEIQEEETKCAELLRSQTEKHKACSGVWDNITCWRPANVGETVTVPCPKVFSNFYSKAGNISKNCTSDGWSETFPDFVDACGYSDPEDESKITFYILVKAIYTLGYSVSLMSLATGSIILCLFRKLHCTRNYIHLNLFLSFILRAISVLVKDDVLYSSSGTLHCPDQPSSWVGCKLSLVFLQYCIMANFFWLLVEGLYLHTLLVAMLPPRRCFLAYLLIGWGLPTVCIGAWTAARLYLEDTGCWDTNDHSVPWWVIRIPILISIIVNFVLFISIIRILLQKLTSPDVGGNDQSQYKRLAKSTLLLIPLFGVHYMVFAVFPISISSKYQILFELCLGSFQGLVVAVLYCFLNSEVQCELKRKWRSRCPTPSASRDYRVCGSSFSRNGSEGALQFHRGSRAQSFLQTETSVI
Experimental: as §1
as §2, with “In this example, the activity of VIP-ELP fusion proteins PB1046 and PB1047 was tested. […] Both constructs have ELP(1-120) at their C-terminus. […] After” for “After”, “the cell, the” for “CHO cells,”
FIG. 11 illustrates the activity of PB1120 for the VPAC2 receptor. […] However, in contrast to the results seen with VPAC1, PB1046 was equipotent for VPAC2 as compared to the native peptide.

[4] = system: conscious spontaneously hypertensive rats (SHR); assay: Telemetric blood pressure and heart rate in conscious SHR, single SQ dose, with and without atenolol (Example 7); format: in vivo, rat; details: for heart rate: +2 hr
Experimental: Here, the effects of PB 1046 (Vasomera™) when given as a single-dose SQ bolus to conscious spontaneously hypertensive rats (SHR) was tested.
SHR rats (351±4 g, n=8) were instrumented for telemetric blood pressure and ECG monitoring. Via a Latin-Square design, the effects of Vasomera (1, 3, and 9 mg/kg SQ) as well as of vehicle (VEH, SQ) were evaluated. Finally, Vasomera™ (9 mg/kg SQ) was assayed during concomitant β-adrenergic receptor blockade (BB, atenolol 20 mg/kg/day PO). Changes in mean arterial pressure (MAP) and heart rate (HR) were measured.

[5] = system: conscious spontaneously hypertensive rats (SHR); assay: Telemetric blood pressure and heart rate in conscious SHR pretreated with anti-hypertensives (Example 8); format: in vivo, rat; details: 9 mg/kg SQ
Experimental: The hemodynamic effects of Vasomera™ when given as a single-dose SQ bolus to conscious spontaneously hypertensive rats (SHR) pretreated with three common anti-hypertensives were tested.
SHR rats (351±4 g, n=8) were instrumented for telemetric BP and ECG monitoring. First, both Vasomera™ (9 mg [177 nmol]/kg, SQ) and placebo (VEH) were assayed in untreated animals. Then, the effects of Vasomera™ were tested during concomitant oral β-adrenergic receptor blockade (+BB, atenolol 20 mg/kg/day), calcium-channel blockade (+CCB, amlodipine 5 mg/kg/day) and ACE-inhibition (+ACE, ramipril 1 mg/kg/day). Mean arterial pressure (MAP) and heart rate (HR) were measured/averaged over 24 hours both pre- and post-dosing.

[6] = under β-adrenergic receptor blockade (atenolol 20 mg/kg/day)
[7] = untreated rats, averaged over 24 hours

B1: PB1047: VIP-ELP fusion protein with tripeptide MAA at the N-terminus (Met removed to leave AA), ELP1-120 at C-terminus (SEQ ID NO: 15) (protein)
chain: MAAHSDAVFTDNYTRLRKQMAVKKYLNSILNVPGVGVPGVGVPGGGVPGAGVPGVGVPGVGVPGVGVPGGGVPGAGVPGGGVPGVGVPGVGVPGGGVPGAGVPGVGVPGVGVPGVGVPGGGVPGAGVPGGGVPGVGVPGVGVPGGGVPGAGVPGVGVPGVGVPGVGVPGGGVPGAGVPGGGVPGVGVPGVGVPGGGVPGAGVPGVGVPGVGVPGVGVPGGGVPGAGVPGGGVPGVGVPGVGVPGGGVPGAGVPGVGVPGVGVPGVGVPGGGVPGAGVPGGGVPGVGVPGVGVPGGGVPGAGVPGVGVPGVGVPGVGVPGGGVPGAGVPGGGVPGVGVPGVGVPGGGVPGAGVPGVGVPGVGVPGVGVPGGGVPGAGVPGGGVPGVGVPGVGVPGGGVPGAGVPGVGVPGVGVPGVGVPGGGVPGAGVPGGGVPGVGVPGVGVPGGGVPGAGVPGVGVPGVGVPGVGVPGGGVPGAGVPGGGVPGVGVPGVGVPGGGVPGAGVPGVGVPGVGVPGVGVPGGGVPGAGVPGGGVPGVGVPGVGVPGGGVPGAGVPGVGVPGVGVPGVGVPGGGVPGAGVPGGGVPGVGVPGVGVPGGGVPGAGVPGVGVPGVGVPGVGVPGGGVPGAGVPGGGVPGWP
modifications: MAA-VIP ELP1-120
**Q.** How did the diastolic blood pressure [1] turn out when B1 was run?
**A.** Its diastolic blood pressure is “significantly reduced”.

**Q.** And the systolic blood pressure [1]?
**A.** Its systolic blood pressure is “significantly reduced”.

**Q.** And the “in vitro activity for VPAC1 receptor compared with native VIP” value [2]?
**A.** The value was “about the same as it was in the test for VPAC2 receptor”.

**Q.** What about the “in vitro activity for VPAC2 receptor compared with native VIP” value [3] of the same molecule?
**A.** The value was “less active”.

B2: PB1046: VIP-ELP fusion protein: VIP with Met at the N-terminus and ELP1-120 fused at the C-terminus (SEQ ID NO: 14) (protein)
chain: MHSDAVFTDNYTRLRKQMAVKKYLNSILNVPGVGVPGVGVPGGGVPGAGVPGVGVPGVGVPGVGVPGGGVPGAGVPGGGVPGVGVPGVGVPGGGVPGAGVPGVGVPGVGVPGVGVPGGGVPGAGVPGGGVPGVGVPGVGVPGGGVPGAGVPGVGVPGVGVPGVGVPGGGVPGAGVPGGGVPGVGVPGVGVPGGGVPGAGVPGVGVPGVGVPGVGVPGGGVPGAGVPGGGVPGVGVPGVGVPGGGVPGAGVPGVGVPGVGVPGVGVPGGGVPGAGVPGGGVPGVGVPGVGVPGGGVPGAGVPGVGVPGVGVPGVGVPGGGVPGAGVPGGGVPGVGVPGVGVPGGGVPGAGVPGVGVPGVGVPGVGVPGGGVPGAGVPGGGVPGVGVPGVGVPGGGVPGAGVPGVGVPGVGVPGVGVPGGGVPGAGVPGGGVPGVGVPGVGVPGGGVPGAGVPGVGVPGVGVPGVGVPGGGVPGAGVPGGGVPGVGVPGVGVPGGGVPGAGVPGVGVPGVGVPGVGVPGGGVPGAGVPGGGVPGVGVPGVGVPGGGVPGAGVPGVGVPGVGVPGVGVPGGGVPGAGVPGGGVPGVGVPGVGVPGGGVPGAGVPGVGVPGVGVPGVGVPGGGVPGAGVPGGGVPGWP
modifications: M-VIP ELP1-120
**Q.** With B2 as the molecule, how does the “fold less active than the native VIP peptide on the VPAC1 receptor” value ([2]; FIG. 10) read?
**A.** The value was “approximately 11 fold”.

**Q.** What about the “in vitro activity for VPAC1 receptor compared with native VIP” value [2] of the same molecule?
**A.** The value was “much less active than native VIP protein”.

**Q.** What about the “lowering of MAP vs VEH” value ([4]; 9 mg/kg (177 nmol/kg) SQ, +6 hr) of the same molecule?
**A.** The value was 16±3%.

**Q.** What about the heart rate ([4]; 9 mg/kg SQ with β-adrenergic receptor blockade (atenolol 20 mg/kg/day PO)) of the same molecule?
**A.** Its heart rate is 308±3 bpm.

**Q.** And the MAP ([4]; 9 mg/kg SQ with β-adrenergic receptor blockade (atenolol 20 mg/kg/day PO), +6 hr)?
**A.** Its MAP is 131±3 mmHg.

**Q.** And the heart rate ([4]; 9 mg/kg SQ)?
**A.** Its heart rate is 370±15 bpm.

**Q.** And the MAP ([4]; 9 mg/kg SQ, +6 hr)?
**A.** Its MAP is 154±5 mmHg.

**Q.** And the “duration of dose-dependent decreases in blood pressure post-dosing” value ([4]; 1, 3, 9 mg/kg SQ, FIG. 14A)?
**A.** The value was “up to 12 hours”.

**Q.** What about the adverse clinical effects ([4]; SHR, 1-9 mg/kg SQ, with or without atenolol) of the same molecule?
**A.** Its adverse clinical effects is “No adverse clinical effects were noted”.

**Q.** And the “potency for VPAC2 as compared to the native peptide” value ([3]; FIG. 11)?
**A.** The value was “equipotent”.

**Q.** And the “selectivity for VPAC2 receptor over VPAC1 receptor” value ([3]; cAMP assays, FIG. 6 and 7)?
**A.** The value was “selectively activates VPAC2 receptor over VPAC1 receptor”.

**Q.** And the “in vitro activity for VPAC2 receptor compared with native VIP” value [3]?
**A.** Its value is “somewhat more active than native VIP protein”.

**Q.** And the “duration of decreases in blood pressure post-dosing” value ([5]; FIG. 15A)?
**A.** The value was “up to 12 hours”.

**Q.** And the “change in MAP” value ([5]; rats pre-treated with amlodipine 5 mg/kg/day oral)?
**A.** The value was −13±2%.

**Q.** What about the “change in MAP” value ([5]; rats pre-treated with atenolol 20 mg/kg/day oral) of the same molecule?
**A.** Its value is −14±1%.

**Q.** And the “change in MAP” value ([5]; rats pre-treated with ramipril 1 mg/kg/day oral)?
**A.** The value was −9±2%.

**Q.** What about the “change in heart rate” value [5, 6] of the same molecule?
**A.** The value was “+6±1%”.

**Q.** And the heart rate post-dosing [5, 6]?
**A.** The heart rate post-dosing was 294±2 bpm.

**Q.** And the MAP post-dosing [5, 7]?
**A.** The MAP post-dosing was 171±5 mmHg.

**Q.** And the “change in heart rate” value [5, 7]?
**A.** The value was “+8±1%”.

**Q.** What about the heart rate post-dosing [5, 7] of the same molecule?
**A.** Its heart rate post-dosing is 384±8 bpm.

**Q.** What about the “lowering of MAP, post- vs pre-dosing” value [5, 7] of the same molecule?
**A.** Its value is 9±1%.

**Q.** And the chronotropy under co-treatment ([5]; with amlodipine 5 mg/kg/day)?
**A.** Its chronotropy under co-treatment is “unaffected”.

**Q.** What about the chronotropy under co-treatment ([5]; with ramipril 1 mg/kg/day) of the same molecule?
**A.** Its chronotropy under co-treatment is “unaffected”.

**Q.** What about the adverse clinical effects ([5]; SHR, with or without anti-hypertensives) of the same molecule?
**A.** The adverse clinical effects was “no adverse clinical effects were noted”.
